The values below come from US20130079286A1 (Pieris, published 2013).

The Kd is the free concentration of one partner at which half of the binding sites on the other are occupied at equilibrium, for simple one-to-one binding. Usually koff stands for the rate constant with which the complex falls apart. Higher therefore signals a short-lived complex. As usually defined, the kon is the second-order rate constant of association. A high value points to faster complex formation.

The target of one assay is T1, ovalbumin (UniProt P01012 2-386).
T1 sequence (looked up): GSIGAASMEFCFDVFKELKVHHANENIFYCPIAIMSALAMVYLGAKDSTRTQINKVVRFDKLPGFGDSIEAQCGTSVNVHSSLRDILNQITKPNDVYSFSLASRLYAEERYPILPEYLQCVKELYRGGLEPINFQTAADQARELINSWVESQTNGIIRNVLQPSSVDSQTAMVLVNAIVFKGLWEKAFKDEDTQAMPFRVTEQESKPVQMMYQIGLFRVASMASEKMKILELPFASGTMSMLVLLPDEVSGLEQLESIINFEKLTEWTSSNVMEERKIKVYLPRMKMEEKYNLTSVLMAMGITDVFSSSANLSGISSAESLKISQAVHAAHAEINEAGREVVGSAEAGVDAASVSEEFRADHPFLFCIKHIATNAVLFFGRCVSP
In words: capture ELISA: 1 µM Lcn2 protein captured via Strep-tag II on coated StrepMAB-Immo, biotinylated target titrated, ExtrAvidin/AP + pNPP. As for the experimental part:
(§1) FIG. 5 depicts the binding activity of the Lcn2 muteins H1-G1, S1-A4, and US7 in capture ELISAs with different biotinylated Aβ targets. StrepMAB-Immo at 10 μg/ml was immobilized on microtitre plates and employed for capturing of 1 JAM Lcn2 muteins via the Strep-tag H. In figures A to C the binding of the Lcn2 muteins S1-A4 and US7 to (A) biotinylated Aβ40, (B) biotinylated Trx-Aβ28, and (C) biotinylated MBP-Aβ40 are shown. Binding was detected by incubation with ExtrAvidin/AP and a subsequent chromogenic reaction with pNPP. Ovalbumin (Ova), thioredoxin (Trx), and maltose binding protein (MBP) were used as negative controls. Additionally, binding of wild-type (wt) lipocalin was tested. The data were fitted to a monovalent binding model.
(§2) For selective capturing of the Lcn2 muteins carrying the C-terminal Strep-tag II (Schmidt and Skerra (2007) Nat. Protoc. 2, 1528-1535), a 96-well MaxiSorp polystyrene microtitre plate (Nunc, Langenselbold, Germany) was coated with 10 μg/mL StrepMAB-Immo (IBA, Göttingen, Germany) in PBS over night at 4° C. and blocked with 3% (w/v) BSA in PBS/T at room temperature for 1 h. After 3 washing steps with PBS/T, 50 μL of a 1 μM solution of the purified Lcn2 muteins from Example 7 were applied to all wells for 1 h. After washing, 50 μL of a dilution series of the biotinylated targets Aβ40, MBP-Aβ40 or Trx-Aβ28 from Example 2 were added and incubated for 1 h whereby the biotinylated forms of Ova, MBP and Trx from Example 2 served as negative control proteins. The wells were washed again and bound conjugate was detected with 50 μL of ExtrAvidin/AP conjugate (Sigma-Aldrich, Steinheim, Germany) diluted 1:5000 in PBS/T for 1 h, followed by signal development in the presence of 100 μL 0.5 mg/mL p-nitrophenyl phosphate (AppliChem, Darmstadt, Germany) in 100 mM Tris/HCl, pH 8.8, 100 mM NaCl, 5 mM MgCl₂.
A general note: An ELISA detects its analyte on a solid surface through an enzyme-linked reagent.

The target in assay [1] is T2, MBP-Aβ40 fusion protein.
T2 construct: the entry may be a nucleic acid; Biotin-labelled in the capture ELISA, unlabeled in the direct ELISA and SPR; also called MBP-Abeta40
In words: direct ELISA: MBP-Aβ40 coated, mutein titrated, detected via Strep-tag II. As to the method: (§3) The Aβ targets Trx-Aβ28 and MBP-Aβ40 as well as the control protein maltose binding protein (MBP) were immobilized at 2 μM in PBS over night. Bound Lcn2 muteins were detected via their Strep-tag II using Streptavidin/AP followed by a chromogenic reaction with pNPP. As a control, the binding of wild-type (wt) lipocalin was tested. The data were fitted to a monovalent binding model.
(§4) Alternatively, for a “direct” ELISA, 2 μM unlabeled Aβ40 target from Example 2 was adsorbed onto a 96-well MaxiSorp polystyrene microliter plate (Nunc, Langenselbold, Germany) and incubated with the purified Lcn2 mutein, which was detected via the Strep-tag II using a 1:1500 dilution of Streptavidin/AP conjugate (GE Healthcare UK Ltd, Buckinghamshire, UK). As a control, 2 μM MBP from Example 2 was adsorbed onto the ELISA plate. Absorption at 405 nm was measured in a SpectraMax 250 reader (Molecular Devices, Sunnyvale, USA).

Assay [2] concerns the target T2, MBP-Aβ40 fusion protein. Kind of assay: SPR (Biacore), MBP-Aβ40 amine-coupled; same experiment as the 1st table, row 20, column 3, printed with more digits. As to the method: (§5) FIG. 8 depicts the kinetic real time analysis of Lcn2 muteins S1-A4 (A) and US7 (B) measured on a Biacore instrument at a flow rate of 10 μl/min. The MBP-Aβ40 fusion protein was coupled via amine chemistry on a CMD 200I chip (ΔRU=1455) and each of the purified Lcn2 muteins was applied in a series at different concentrations. The measured signal is shown as a grey line whereas the curve fit is depicted as a black line in each case.
(§6) Real time analysis of Lcn2 muteins was performed on a Biacore X system (Biacore, Uppsala, Sweden) using PBS/T (PBS containing 0.005% (v/v) Tween 20) as running buffer. A 50 μg/mL solution of MBP-Aβ40 from Example 2 in 10 mM Na-acetate, pH 4.5 was immobilized onto a […] chip (Xantec, Düsseldorf, Germany) using standard amine coupling chemistry, resulting in a ligand density of 1455 resonance units (RU). […] The sensorgrams were corrected by subtraction of the corresponding signals measured for the control channel, which had been activated and blocked with ethanolamine. […] During this step the kₒₙ and koff rates were fitted globally, while the maximum response difference Rₘₐₓ was fitted locally for each curve.
On the technique in general: In SPR one partner is held on a chip, and binding of the other changes the refractive index at the surface.

Assay [3] addresses T3, Trx-Aβ28 fusion protein (Escherichia coli (strain K12), UniProt P0AA25 1-76 = thioredoxin, Biotin-labelled through an NHS ester (2:1) in the capture and competitive ELISAs; unlabeled in the direct ELISA and as competitor.).
T3 construct: the entry may be a nucleic acid; also called TrxAbeta28H6
In words: direct ELISA: Trx-Aβ28 coated, mutein titrated, detected via Strep-tag II. As for the experimental part:
as §3, §4

Assay [4] deals with T2, MBP-Aβ40 fusion protein. Kind of assay: capture ELISA: mutein captured, biotinylated MBP-Aβ40 titrated. As for the experimental part: as §1
For selective capturing of the Lcn2 muteins carrying the C-terminal Strep-tag II (Schmidt and Skerra (2007) Nat. Protoc. 2, 1528-1535), a 96-well MaxiSorp polystyrene microtitre plate (Nunc, Langenselbold, Germany) was coated with 10 μg/mL StrepMAB-Immo (IBA, Göttingen, Germany) in PBS over night at 4° C. and blocked with 3% (w/v) BSA in PBS/T at room temperature for 1 h. After 3 washing steps with PBS/T, 50 μL of a 1 μM solution of the purified Lcn2 muteins from Example 7 were applied to all wells for 1 h. […]

Assay [5] deals with T2, MBP-Aβ40 fusion protein. Kind of assay: SPR (Biacore), MBP-Aβ40 amine-coupled (1455 RU), mutein as analyte. As for the experimental part:
as §5, §6

Assay [6] concerns the target T4, Aβ40 peptide, non-labeled (human).
T4 construct: Non-labeled synthetic peptide (W. M. Keck Laboratory); also called Abeta40; amyloid beta peptide
Kind of assay: SPOT membrane of overlapping Aβ40 peptides, 100 nM mutein.

The target of assay [7] is T3, Trx-Aβ28 fusion protein. Kind of assay: competitive ELISA: mutein captured, 40 nM biotinylated Trx-Aβ28 as tracer, unlabeled Trx-Aβ28 varied as competitor. As for the experimental part:
Alternatively, a “competitive” ELISA was performed in a similar manner as the “capture” ELISA described above. Again, after immobilizing StrepMAB-Immo and washing, 50 μL of a 1 μM solution of the purified Lcn2 mutein from Example 7 was applied to all wells for 1 h. After washing, the biotinylated target Trx-Aβ28 from Example 2 was applied at a fixed concentration of 5 nM (for S1-A4) or 40 nM (for US7) in the presence of varying concentrations of the free non-labeled Trx-Aβ28 target as competitor. Starting with a 100-fold excess, the competitor concentration was decreased by the factor 3 in each step. In this case, the data were fitted to the sigmoidal equation

For assay [8], the target named is T2, MBP-Aβ40 fusion protein. Kind of assay: SPR (Biacore X), MBP-Aβ40 amine-coupled, mutein as analyte. As for the experimental part: as §6
Assay [9] concerns the target T3, Trx-Aβ28 fusion protein. In words: capture ELISA: mutein captured, biotinylated Trx-Aβ28 titrated. As to the method: as §1, §2
A further assay has as its target T5, central peptide Aβ16-27.
T5 construct: Bought from the Peptide Speciality Laboratory
T5 peptide: KLVFFAEDVGSN
Kind of assay: capture ELISA: mutein captured, Aβ16-27 titrated.

Assay [10] addresses T6, biotinylated Aβ40 peptide (human, C-terminal biotin group attached via a lysine spacer).
T6 construct: Synthetic peptide (Peptide Speciality Laboratory) with a C-terminal biotin on a lysine spacer; used in the capture ELISAs
In words: capture ELISA: mutein captured via Strep-tag II on StrepMAB-Immo, biotinylated Aβ40 titrated. As to the method: as §1, §2

The target of assay [11] is T3, Trx-Aβ28 fusion protein. Kind of assay: capture ELISA: 1 µM Lcn2 protein captured via Strep-tag II on coated StrepMAB-Immo, biotinylated target titrated, ExtrAvidin/AP + pNPP. As for the experimental part:
as §1, §2

In assay [12] the target is T6, biotinylated Aβ40 peptide. The assay is described as above. As to the method:
as §1, §2

For assay [13], the target named is T7, recombinant human fibronectin fragment FN7B8 (human, UniProt P02751 1173-1448).
T7 construct: no separate number is printed for the protein, so the entry may be a nucleic acid
In words: ELISA: FN7B8 coated, Lcn2 protein titrated, detected via Strep-tag II with Streptavidin-alkaline phosphatase + pNPP. As for the experimental part: FIG. 12 depicts binding activity in the ELISA. A microliter plate was coated with the purified proteins FN7B8 and FN789 and incubated with a dilution series of the selected Lcn2 muteins, followed by detection with Streptavidin-alkaline-phosphatase conjugate and pNPP substrate.
To adsorb FN7B8 or FN789 onto the surface of a 96-well Nunc Maxisorp plate (Thermo Fisher Scientific, Langenselbold, Germany) 50 μl of a 100 μg/ml protein solution in TBS/E was added per well and incubated at room temperature for 2 h. Additionally, to include control proteins, blank wells were exposed to 120 μl 2% (w/v) BSA (AppliChem, Darmstadt, Germany) in TBS/ET. […] The wells were washed again and bound Lcn2 muteins were detected with 50 μL of Streptavidin-alkaline phosphatase conjugate (GE Healthcare, Munich, Germany) diluted 1:1500 in TBS/T for 1 h, followed by signal development in the presence of 50 μl 0.5 mg/ml p-nitrophenyl phosphate in 100 mM Tris/HCl, 100 mM NaCl, 5 mM MgCl₂, pH 8.8. The time course of absorption AA/At at 405 nm was measured in a SpectraMax 250 reader (Molecular Devices, Sunnyvale, Calif.) and the data were fitted with KaleidaGraph software (Synergy software, Reading, Pa.) to the equation

For assay [14], the target named is T4, Aβ40 peptide, non-labeled. In words: SPOT membrane of overlapping Aβ40 peptides.

T6 sequence (peptide, as listed by the source): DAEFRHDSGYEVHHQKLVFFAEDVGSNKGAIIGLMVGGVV
T4 sequence (peptide, as listed by the source): as above
T7 sequence (P02751 other isoform, or with tags, fused parts or gaps limits assumed): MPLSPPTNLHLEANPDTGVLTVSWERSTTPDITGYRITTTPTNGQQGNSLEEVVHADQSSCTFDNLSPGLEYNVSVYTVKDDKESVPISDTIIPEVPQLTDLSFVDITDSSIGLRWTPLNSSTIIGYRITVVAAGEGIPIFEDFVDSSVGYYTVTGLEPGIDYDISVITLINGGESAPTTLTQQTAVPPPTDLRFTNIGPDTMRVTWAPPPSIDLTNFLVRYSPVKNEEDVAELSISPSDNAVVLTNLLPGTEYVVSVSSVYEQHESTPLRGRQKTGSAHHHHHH

B1: Lcn2 mutein US7 (designed binder)
chain: QDSTSDLIPAPPLSKVPLQQNFQDNQFHGKWYVVGVAGNKSLREDKDPWKMYATIYELKEDKSYNVTSVGFGTKKCHYKIRTFVPGSQPGEFTLGRIKSRPGRTSALVRVVSTNYNQHAMVFFKVVQQNRESFNITLYGRTKELTSELKENFIRFSKSLGLPENHIVFPVPIDQCIDG
Regarding B1, the values for the binding result (with ovalbumin; in assay [6]) were “no binding (tested: 250 nM)” and “binds”, respectively. Also, the Kd was 49.7 nM in the assay with MBP-Aβ40 fusion protein [1]; 1.25 nM with MBP-Aβ40 fusion protein [2]; 9.6 nM with Trx-Aβ28 fusion protein [3]; 11.4 nM in the assay with MBP-Aβ40 fusion protein [4]; 76.9 nM in the assay with Trx-Aβ28 fusion protein [7]; 1.3 nM with MBP-Aβ40 fusion protein [8]. In addition, the values for the Kd (in the assay with Trx-Aβ28 fusion protein [9]; with central peptide Aβ16-27; in [10]) were 2.4 nM, 2.1 nM and 6.8 nM, respectively. Also, the koff in the assay with MBP-Aβ40 fusion protein [5] is 0.000252 s⁻¹. In the assay with MBP-Aβ40 fusion protein [5], this molecule displayed a kon of 202000 M⁻¹ s⁻¹.

B2: recombinant wild-type human Lipocalin 2 (other)
chain: QDSTSDLIPAPPLSKVPLQQNFQDNQFQGKWYVVGLAGNAILREDKDPQKMYATIYELKEDKSYNVTSVLFRKKKCDYWIRTFVPGSQPGEFTLGNIKSYPGLTSYLVRVVSTNYNQHAMVFFKKVSQNREYFKITLYGRTKELTSELKENFIRFSKSLGLPENHIVFPVPIDQCIDG
notes: also called wt Lcn2; wild type Lcn2
Regarding B2, the binding result with Trx-Aβ28 fusion protein [11] is on record as “no binding”; in assay [12], “no binding”; with ovalbumin, “no binding (tested: 250 nM)”; in assay [13], “no binding (tested: 250 nM)”; in [14], “no binding (tested: 100 nM)”.
